The target of series [1] is T1, NS3 of SEQ ID NO: 3 (NS3 domain of Hepatitis C virus genotype 4a fused to the T7 tag at the N-terminus and … (Hepatitis C virus (genotype 4a))).
T1 construct: also called HCV NS3 genotype 4a
T1 chain: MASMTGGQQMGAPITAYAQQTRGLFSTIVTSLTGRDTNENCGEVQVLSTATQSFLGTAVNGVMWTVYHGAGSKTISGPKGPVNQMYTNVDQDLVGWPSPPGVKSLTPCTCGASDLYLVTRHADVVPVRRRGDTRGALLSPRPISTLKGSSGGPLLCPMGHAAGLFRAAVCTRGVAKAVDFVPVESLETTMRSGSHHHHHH
The series is described as follows: differential static light scattering (DSLS), NS3:peptide 1:2, 2 h at room temperature.

Series [2] deals with T1, NS3 of SEQ ID NO: 3 (NS3 domain of …). The series is described as follows: differential static light scattering (DSLS).
Series [3] shares this target. The series is described as follows: competition fluorescence anisotropy against 0.1 µM labelled NS4A peptide with 1.8 µM NS3. For orientation: Polarisation of emitted light reports the rotation of a fluorescent probe.
The target in series [4] is T2, Pep-15 of SEQ ID NO: 20 (KKGSx[…]).
T2 chain: KKGSGVIVGRIVLSGKK

For series [5], the target named is T1, NS3 of SEQ ID NO: 3 (NS3 domain of …). The series is described as follows: fluorescence anisotropy, 0.1 µM labelled peptide titrated with NS3.

Entries after “also recorded” stand apart in the source; their conditions may differ. Where no end group is shown, it is not given here. [ ]: non-standard residue; d: D form. The star is where a group is joined. FITC = O=C1OC2(c3ccc(O)cc3Oc3cc(O)ccc32)c2ccc(NC(=S)*)cc21; hI = homoisoleucine, (2S)-2-amino-4-methylhexanoic acid; Chg = N[C@H](C(=O)O)C1CCCCC1; Ahx = NCCCCCC(=O)O

B1: NS4A peptide of SEQ ID NO: 4 (KK-[…]-KK, comprising the native NS4A21-33 of SEQ ID NO: 2) (peptide)
peptide: KKGSVVIVGRIVLSGKK
notes: Synthetic peptide; the KK at each end is not part of NS4A
Turning to B1, in series [1], the ΔTagg is 2.83 ° C.

B2: Pep-13 of SEQ ID NO: 18 (KKGSAVIVGRIVLSGKK) (peptide)
peptide: KKGSAVIVGRIVLSGKK
With B2, the binding result in series [2] is recorded as “binds”.

B3: Pep-11 of SEQ ID NO: 16 (KKGSFVIVGRIVLSGKK) (peptide)
peptide: KKGSFVIVGRIVLSGKK
Consider B3, for which the binding result in series [2] is “binds”.

B4: Pep-14 of SEQ ID NO: 19 (KKGSh[…]) (peptide)
peptide: KKGS[hI]VIVGRIVLSGKK
With B4, the binding result in series [2] is listed as “binds”.

B5: Pep-12 of SEQ ID NO: 17 (KKGSWVIVGRIVLSGKK) (peptide)
peptide: KKGSWVIVGRIVLSGKK
On to B5, for which, in series [2], the binding result is listed as “binds”.

B6: Pep-15 of SEQ ID NO: 20 (KKGSx[…]) (peptide)
peptide: KKGS[Chg]VIVGRIVLSGKK
The Kd is the constant that tells how readily two partners part at equilibrium. Read a high Kd as a looser complex. On to B6, for which the Tagg shift in series [2] came out at 3.9 ° C. Moreover, the Kd in series [3] was 70 nM.

B7: NS3 of SEQ ID NO: 3 (NS3 domain of Hepatitis C virus genotype 4a fused to the T7 tag at the N-terminus and 6-His tag at the C-terminus) (protein)
chain: T1 chain
As for B7, the “protease activity (cleavage of 5FAM-substrate of SEQ ID NO: 22, fluorescence at 520 nm)” value in series [4] is “maintained 69.7% of the enzyme activity during the first 60 minutes; also recorded: After 60 minutes, it was observed that the activity of the enzyme completely disappeared”.

B8: isothiocyanate-labeled NS4A peptide of SEQ ID NO: 25 (FITC-NS4A) (peptide)
peptide: {FITC}-[Ahx]KKGSVVIVGRIVLSGKK
notes: also called fluorescein isothiocyanate-NS4A
In turn, B8 gave an equilibrium dissociation constant (Kd) in series [5] of 169 nM.
